Among the data in article PMC2819989 are stoichiometry N values, retold here.

In the experiment the target is RhiG-C-His (Bacillus subtilis ATCC6633). The experiment in a line: SEC.

For orientation: stoichiometry N means the number of molecules, sites or subunits per partner or assembly.

In the case of RhiG-C-His (enzyme), the stoichiometry N came to 2.
